Reference: patent publication US20240076396A1 (Regeneron, published 2024)

B1: CompAb1 heavy chain variant N101I (antibody, human IgG1, V domains shown)
VH: QVQLQESGPGLVKPSETLSLTCIVSGGSISGYFWNWIRQPPGKGLEWIGYIYYSGTTIYNPSLKSRFTISLDTSKNQFSLKLTSVTAADTAVYYCARESYIPSPRYFDHWGQGTLVTVSS
VL: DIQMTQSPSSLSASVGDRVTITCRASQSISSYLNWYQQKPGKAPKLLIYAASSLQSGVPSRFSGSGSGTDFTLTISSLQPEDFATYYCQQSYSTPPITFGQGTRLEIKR
notes: human IgG1 constant region; tested as CHOt supernatant; also called Sample Number 8
B2: CompAb1 heavy chain variant N101M (antibody, human IgG1, V domains shown)
VH: QVQLQESGPGLVKPSETLSLTCIVSGGSISGYFWNWIRQPPGKGLEWIGYIYYSGTTIYNPSLKSRFTISLDTSKNQFSLKLTSVTAADTAVYYCARESYMPSPRYFDHWGQGTLVTVSS
VL: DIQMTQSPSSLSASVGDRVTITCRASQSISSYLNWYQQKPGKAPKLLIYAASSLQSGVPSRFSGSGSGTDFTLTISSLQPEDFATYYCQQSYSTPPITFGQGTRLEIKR
notes: human IgG1 constant region; tested as CHOt supernatant; also called Sample Number 11
B3: CompAb1 heavy chain variant S103W (antibody, human IgG1, V domains shown)
VH: QVQLQESGPGLVKPSETLSLTCIVSGGSISGYFWNWIRQPPGKGLEWIGYIYYSGTTIYNPSLKSRFTISLDTSKNQFSLKLTSVTAADTAVYYCARESYNPWPRYFDHWGQGTLVTVSS
VL: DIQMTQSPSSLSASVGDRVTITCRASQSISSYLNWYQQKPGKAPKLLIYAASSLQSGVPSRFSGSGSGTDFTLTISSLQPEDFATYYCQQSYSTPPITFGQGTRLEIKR
notes: human IgG1 constant region; tested as CHOt supernatant; also called Sample Number 36
B4: CompAb1 heavy chain variant S103T (antibody, human IgG1, V domains shown)
VH: QVQLQESGPGLVKPSETLSLTCIVSGGSISGYFWNWIRQPPGKGLEWIGYIYYSGTTIYNPSLKSRFTISLDTSKNQFSLKLTSVTAADTAVYYCARESYNPTPRYFDHWGQGTLVTVSS
VL: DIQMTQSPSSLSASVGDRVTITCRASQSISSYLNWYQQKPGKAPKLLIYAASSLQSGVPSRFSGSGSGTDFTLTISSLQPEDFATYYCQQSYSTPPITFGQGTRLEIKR
notes: human IgG1 constant region; tested as CHOt supernatant; also called Sample Number 34
B5: CompAb1 heavy chain variant S103Q (antibody, human IgG1, V domains shown)
VH: QVQLQESGPGLVKPSETLSLTCIVSGGSISGYFWNWIRQPPGKGLEWIGYIYYSGTTIYNPSLKSRFTISLDTSKNQFSLKLTSVTAADTAVYYCARESYNPQPRYFDHWGQGTLVTVSS
VL: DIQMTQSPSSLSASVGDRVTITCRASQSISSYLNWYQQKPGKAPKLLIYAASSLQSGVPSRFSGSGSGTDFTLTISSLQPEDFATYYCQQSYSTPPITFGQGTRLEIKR
notes: human IgG1 constant region; tested as CHOt supernatant; also called Sample Number 32
B6: CompAb1 heavy chain variant N101R (antibody, human IgG1, V domains shown)
VH: QVQLQESGPGLVKPSETLSLTCIVSGGSISGYFWNWIRQPPGKGLEWIGYIYYSGTTIYNPSLKSRFTISLDTSKNQFSLKLTSVTAADTAVYYCARESYRPSPRYFDHWGQGTLVTVSS
VL: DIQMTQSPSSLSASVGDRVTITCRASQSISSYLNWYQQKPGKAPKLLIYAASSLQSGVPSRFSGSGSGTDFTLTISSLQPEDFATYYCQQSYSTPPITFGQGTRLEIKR
notes: human IgG1 constant region; tested as CHOt supernatant; also called Sample Number 14
B7: CompAb1 heavy chain variant S103F (antibody, human IgG1, V domains shown)
VH: QVQLQESGPGLVKPSETLSLTCIVSGGSISGYFWNWIRQPPGKGLEWIGYIYYSGTTIYNPSLKSRFTISLDTSKNQFSLKLTSVTAADTAVYYCARESYNPFPRYFDHWGQGTLVTVSS
VL: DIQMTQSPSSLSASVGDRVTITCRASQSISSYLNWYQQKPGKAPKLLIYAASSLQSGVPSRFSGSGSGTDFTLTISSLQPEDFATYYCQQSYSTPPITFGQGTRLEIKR
notes: human IgG1 constant region; tested as CHOt supernatant; also called Sample Number 23
B8: CompAb1 heavy chain variant S103A (antibody, human IgG1, V domains shown)
VH: QVQLQESGPGLVKPSETLSLTCIVSGGSISGYFWNWIRQPPGKGLEWIGYIYYSGTTIYNPSLKSRFTISLDTSKNQFSLKLTSVTAADTAVYYCARESYNPAPRYFDHWGQGTLVTVSS
VL: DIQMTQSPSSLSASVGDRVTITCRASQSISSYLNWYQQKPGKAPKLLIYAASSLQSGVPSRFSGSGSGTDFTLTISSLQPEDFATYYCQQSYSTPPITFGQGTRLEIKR
notes: human IgG1 constant region; tested as CHOt supernatant; also called Sample Number 20
B9: CompAb1 heavy chain variant S103H (antibody, human IgG1, V domains shown)
VH: QVQLQESGPGLVKPSETLSLTCIVSGGSISGYFWNWIRQPPGKGLEWIGYIYYSGTTIYNPSLKSRFTISLDTSKNQFSLKLTSVTAADTAVYYCARESYNPHPRYFDHWGQGTLVTVSS
VL: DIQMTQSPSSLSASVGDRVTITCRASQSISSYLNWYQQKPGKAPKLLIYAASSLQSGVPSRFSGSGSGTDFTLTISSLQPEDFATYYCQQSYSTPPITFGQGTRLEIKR
notes: human IgG1 constant region; tested as CHOt supernatant; also called Sample Number 25
B10: CompAb1 heavy chain variant N101K (antibody, human IgG1, V domains shown)
VH: QVQLQESGPGLVKPSETLSLTCIVSGGSISGYFWNWIRQPPGKGLEWIGYIYYSGTTIYNPSLKSRFTISLDTSKNQFSLKLTSVTAADTAVYYCARESYKPSPRYFDHWGQGTLVTVSS
VL: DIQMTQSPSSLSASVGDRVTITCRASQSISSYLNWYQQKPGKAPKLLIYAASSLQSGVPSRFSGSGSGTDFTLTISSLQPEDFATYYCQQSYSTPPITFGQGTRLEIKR
notes: human IgG1 constant region; tested as CHOt supernatant; also called Sample Number 9
B11: CompAb1 heavy chain variant N101Q (antibody, human IgG1, V domains shown)
VH: QVQLQESGPGLVKPSETLSLTCIVSGGSISGYFWNWIRQPPGKGLEWIGYIYYSGTTIYNPSLKSRFTISLDTSKNQFSLKLTSVTAADTAVYYCARESYQPSPRYFDHWGQGTLVTVSS
VL: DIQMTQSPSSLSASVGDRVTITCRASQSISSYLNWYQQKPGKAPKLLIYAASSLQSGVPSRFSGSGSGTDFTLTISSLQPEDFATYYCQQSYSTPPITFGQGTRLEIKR
notes: human IgG1 constant region; tested as CHOt supernatant; also called Sample Number 13
B12: CompAb1 heavy chain variant S103I (antibody, human IgG1, V domains shown)
VH: QVQLQESGPGLVKPSETLSLTCIVSGGSISGYFWNWIRQPPGKGLEWIGYIYYSGTTIYNPSLKSRFTISLDTSKNQFSLKLTSVTAADTAVYYCARESYNPIPRYFDHWGQGTLVTVSS
VL: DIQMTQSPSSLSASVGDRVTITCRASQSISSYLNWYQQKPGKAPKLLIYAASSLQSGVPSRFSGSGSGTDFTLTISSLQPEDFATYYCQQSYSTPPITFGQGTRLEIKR
notes: human IgG1 constant region; tested as CHOt supernatant; also called Sample Number 26
B13: CompAb1 heavy chain variant S103Y (antibody, human IgG1, V domains shown)
VH: QVQLQESGPGLVKPSETLSLTCIVSGGSISGYFWNWIRQPPGKGLEWIGYIYYSGTTIYNPSLKSRFTISLDTSKNQFSLKLTSVTAADTAVYYCARESYNPYPRYFDHWGQGTLVTVSS
VL: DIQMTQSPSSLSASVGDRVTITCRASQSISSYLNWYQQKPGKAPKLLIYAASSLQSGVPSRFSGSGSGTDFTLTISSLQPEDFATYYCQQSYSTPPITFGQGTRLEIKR
notes: human IgG1 constant region; tested as CHOt supernatant; also called Sample Number 37
B14: CompAb1 heavy chain variant S103M (antibody, human IgG1, V domains shown)
VH: QVQLQESGPGLVKPSETLSLTCIVSGGSISGYFWNWIRQPPGKGLEWIGYIYYSGTTIYNPSLKSRFTISLDTSKNQFSLKLTSVTAADTAVYYCARESYNPMPRYFDHWGQGTLVTVSS
VL: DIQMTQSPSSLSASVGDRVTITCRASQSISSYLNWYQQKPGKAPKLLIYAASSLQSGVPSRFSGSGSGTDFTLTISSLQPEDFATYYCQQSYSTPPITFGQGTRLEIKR
notes: human IgG1 constant region; tested as CHOt supernatant; also called Sample Number 29
B15: CompAb1 heavy chain variant S103E (antibody, human IgG1, V domains shown)
VH: QVQLQESGPGLVKPSETLSLTCIVSGGSISGYFWNWIRQPPGKGLEWIGYIYYSGTTIYNPSLKSRFTISLDTSKNQFSLKLTSVTAADTAVYYCARESYNPEPRYFDHWGQGTLVTVSS
VL: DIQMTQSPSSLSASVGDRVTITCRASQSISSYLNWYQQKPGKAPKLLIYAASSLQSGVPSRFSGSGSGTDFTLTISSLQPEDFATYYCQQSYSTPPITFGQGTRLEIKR
notes: human IgG1 constant region; tested as CHOt supernatant; also called Sample Number 22
B16: CompAb1 heavy chain variant S103L (antibody, human IgG1, V domains shown)
VH: QVQLQESGPGLVKPSETLSLTCIVSGGSISGYFWNWIRQPPGKGLEWIGYIYYSGTTIYNPSLKSRFTISLDTSKNQFSLKLTSVTAADTAVYYCARESYNPLPRYFDHWGQGTLVTVSS
VL: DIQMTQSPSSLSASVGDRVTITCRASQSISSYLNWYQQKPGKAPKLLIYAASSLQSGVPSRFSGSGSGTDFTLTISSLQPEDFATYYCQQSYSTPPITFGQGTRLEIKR
notes: human IgG1 constant region; tested as CHOt supernatant; also called Sample Number 28
B17: CompAb1 heavy chain variant S103V (antibody, human IgG1, V domains shown)
VH: QVQLQESGPGLVKPSETLSLTCIVSGGSISGYFWNWIRQPPGKGLEWIGYIYYSGTTIYNPSLKSRFTISLDTSKNQFSLKLTSVTAADTAVYYCARESYNPVPRYFDHWGQGTLVTVSS
VL: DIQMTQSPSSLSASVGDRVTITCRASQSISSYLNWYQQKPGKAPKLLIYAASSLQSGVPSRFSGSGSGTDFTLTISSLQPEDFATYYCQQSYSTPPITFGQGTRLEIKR
notes: human IgG1 constant region; tested as CHOt supernatant; also called Sample Number 35
B18: CompAb1 heavy chain variant S103N (antibody, human IgG1, V domains shown)
VH: QVQLQESGPGLVKPSETLSLTCIVSGGSISGYFWNWIRQPPGKGLEWIGYIYYSGTTIYNPSLKSRFTISLDTSKNQFSLKLTSVTAADTAVYYCARESYNPNPRYFDHWGQGTLVTVSS
VL: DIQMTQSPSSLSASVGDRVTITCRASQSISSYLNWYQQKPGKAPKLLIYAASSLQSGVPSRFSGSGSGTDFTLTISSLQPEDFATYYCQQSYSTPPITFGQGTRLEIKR
notes: human IgG1 constant region; tested as CHOt supernatant; also called Sample Number 30
B19: CompAb1 heavy chain variant S103G (antibody, human IgG1, V domains shown)
VH: QVQLQESGPGLVKPSETLSLTCIVSGGSISGYFWNWIRQPPGKGLEWIGYIYYSGTTIYNPSLKSRFTISLDTSKNQFSLKLTSVTAADTAVYYCARESYNPGPRYFDHWGQGTLVTVSS
VL: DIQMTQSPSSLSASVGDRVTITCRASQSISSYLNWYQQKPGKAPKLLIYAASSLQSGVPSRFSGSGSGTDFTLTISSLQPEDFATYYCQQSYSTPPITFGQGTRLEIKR
notes: human IgG1 constant region; tested as CHOt supernatant; also called Sample Number 24
B20: CompAb1 heavy chain variant S103D (antibody, human IgG1, V domains shown)
VH: QVQLQESGPGLVKPSETLSLTCIVSGGSISGYFWNWIRQPPGKGLEWIGYIYYSGTTIYNPSLKSRFTISLDTSKNQFSLKLTSVTAADTAVYYCARESYNPDPRYFDHWGQGTLVTVSS
VL: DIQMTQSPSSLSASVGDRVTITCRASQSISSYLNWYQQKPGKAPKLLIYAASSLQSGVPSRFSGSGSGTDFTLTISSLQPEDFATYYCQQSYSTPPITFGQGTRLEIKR
notes: human IgG1 constant region; tested as CHOt supernatant; also called Sample Number 21
B21: CompAb1 heavy chain variant S103P (antibody, human IgG1, V domains shown)
VH: QVQLQESGPGLVKPSETLSLTCIVSGGSISGYFWNWIRQPPGKGLEWIGYIYYSGTTIYNPSLKSRFTISLDTSKNQFSLKLTSVTAADTAVYYCARESYNPPPRYFDHWGQGTLVTVSS
VL: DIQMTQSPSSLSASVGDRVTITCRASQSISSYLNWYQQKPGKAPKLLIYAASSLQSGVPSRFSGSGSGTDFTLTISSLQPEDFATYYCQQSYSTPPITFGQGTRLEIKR
notes: human IgG1 constant region; tested as CHOt supernatant; also called Sample Number 31
B22: CompAb1 heavy chain variant N101V (antibody, human IgG1, V domains shown)
VH: QVQLQESGPGLVKPSETLSLTCIVSGGSISGYFWNWIRQPPGKGLEWIGYIYYSGTTIYNPSLKSRFTISLDTSKNQFSLKLTSVTAADTAVYYCARESYVPSPRYFDHWGQGTLVTVSS
VL: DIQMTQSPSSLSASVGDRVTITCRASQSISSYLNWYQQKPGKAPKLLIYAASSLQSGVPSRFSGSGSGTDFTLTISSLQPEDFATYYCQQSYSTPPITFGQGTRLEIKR
notes: human IgG1 constant region; tested as CHOt supernatant; also called Sample Number 17

Columns and labels:
[1] = biological target: T1, hGITR.mFc (dimeric recombinant human GITR ectodomain protein, mouse Fc fusion) (human); experiment: SPR Biacore 2000 25C; CHOt supernatant antibody captured on anti-human Fc; 50 nM hGITR.mFc
T1 construct: also called dimeric human GITR; dimeric GITR
T1 chain: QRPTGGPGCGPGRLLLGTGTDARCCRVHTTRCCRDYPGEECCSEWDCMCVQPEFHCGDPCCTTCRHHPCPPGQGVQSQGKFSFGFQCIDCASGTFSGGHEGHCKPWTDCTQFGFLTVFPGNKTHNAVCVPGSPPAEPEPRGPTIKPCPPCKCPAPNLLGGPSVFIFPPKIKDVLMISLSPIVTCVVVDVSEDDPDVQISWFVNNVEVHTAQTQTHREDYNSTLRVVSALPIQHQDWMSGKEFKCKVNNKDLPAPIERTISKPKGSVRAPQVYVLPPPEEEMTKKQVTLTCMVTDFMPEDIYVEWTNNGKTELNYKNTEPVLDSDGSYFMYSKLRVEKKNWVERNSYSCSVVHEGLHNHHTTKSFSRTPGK
Description: (§1) Biacore experiments for antibodies secreted in conditioned culture medium were performed as follows. Using a Biacore 2000 instrument at 25° C., antibodies were captured for 80 seconds at a flow rate of 8 uL/min on a CM5 anti-humanFc-coupled surface. Approximately 1000-2000 RU of each antibody were captured. 100 nM hGITR.mmH (soluble monomeric hGITR, SEQ ID NO: 45) or 50 nM hGITR.mFc (dimeric Macaca fasicularis GITR, SEQ ID NO: 46) were injected over this surface for 2 minutes at a flow rate of 50 uL/min. Dissociation was measured for 2 minutes. The KD and t_{1/2} were calculated by fitting the double-referenced sensorgrams to a 1:1 binding model.

[2] = biological target: T2, hGITR.mmH (soluble monomeric recombinant human GITR ectodomain protein) (human); experiment: SPR Biacore 2000 25C; CHOt supernatant antibody captured on anti-human Fc; 100 nM hGITR.mmH
T2 construct: also called monomeric human GITR
T2 chain: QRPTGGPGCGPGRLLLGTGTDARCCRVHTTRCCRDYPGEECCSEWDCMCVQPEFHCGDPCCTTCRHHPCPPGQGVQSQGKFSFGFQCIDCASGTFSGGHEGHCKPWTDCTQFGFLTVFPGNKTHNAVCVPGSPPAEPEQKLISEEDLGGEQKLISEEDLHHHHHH
Description: as §1

| Binder | Kd [1] [nM] | t1/2 [1] [min] | Kd [2] [nM] | t1/2 [2] [min] |
| --- | --- | --- | --- | --- |
| B1 | 27.5 | 0.72 | 329 | 1.32 |
| B2 | 24 | 0.82 | 152 | 1.93 |
| B3 | 1.61 | 27 | 116 | 0.94 |
| B4 | 0.127 | 249 | 29.6 | 3.88 |
| B5 | 0.255 | 124 | 96.8 | 0.92 |
| B6 | 29.4 | 0.86 | – | – |
| B7 | 2.33 | 12.8 | 7.35 | 13.6 |
| B8 | 0.529 | 50.3 | 108 | 0.83 |
| B9 | 6.68 | 4.63 | 12.6 | 16.4 |
| B10 | 26.9 | 0.99 | 17 | 4.91 |
| B11 | 9.98 | 3.86 | 3.41 | 16.7 |
| B12 | 6.51 | 4.41 | 10.1 | 11.5 |
| B13 | 3.03 | 10.4 | 4.39 | 26.6 |
| B14 | 1.04 | 27.3 | 4.62 | 15.2 |
| B15 | 0.742 | 42.4 | 119 | 0.76 |
| B16 | 15.9 | 1.66 | 85.2 | 4.59 |
| B17 | 3.82 | 7.8 | 7.39 | 14.7 |
| B18 | 1.01 | 41.4 | 119 | 0.95 |
| B19 | 5.56 | 7.4 | – | – |
| B20 | 0.595 | 65 | 77.1 | 1.01 |
| B21 | 7.79 | 2.92 | 28.4 | 11.2 |
| B22 | 23.9 | 0.98 | 29.1 | 3.46 |
